The values below come from patent US7387779B2, “Anti-angiogenic proteins and fragments and methods of use thereof” (Beth Israel Deaconess Medical Center, priority 1998, dated 2008).

One assay relates to HUVECs. The assay is described as follows: Total protein synthesis, 35S-methionine incorporation. The class given is cell-based, human. The note with it: 4.5 μM; 24 hours of serum stimulation; rapamycin 100 ng/ml. The protocol: Primary human renal epithelial cells (HRE) were purchased from Clonetics (San Diego, Calif., USA) and were maintained in REGM (Clonetics Corp.). Other cell lines were obtained and maintained as described above. Cells were serum-starved for 24 hrs (0.5% FCS), stimulated with 10% FCS in the presence of T3 peptide, Tumstatin-44-131, endostatin or rapamycin for 12-24 hours. After pre-incubation of cells in methionine-free media for 1 hour, cells were labeled with ^35S-methionine for 1 hour and incorporation of radioactivity into trichloracetic acid precipitates was analyzed (Sudhakar, A. et al., 2000, Biochem. 39:12929-38; Maeshima, Y. et al., 1996, J. Amer. Soc. Nephrol. 7:2219-29). ANOVA with a one-tailed Student's t test was used to identify significant differences in multiple comparisons in the present study. A level of P<0.05 was considered statistically significant.

For another assay, the system named is Caspase-3 in C-PAE cells. The assay is described as follows: Caspase-3 assay. It counts as cell-based, bovine. Conditions: 20 μg/ml Tumstatin; TNF-α positive control.
The subject of a further assay is 786-O cells. Briefly: Annexin V-FITC apoptosis assay. It counts as cell-based, human. The note with it: 15 μg/ml. The method, then:
(§1) Annexin V-FITC Labeling. In order to establish apoptosis as the potential mode of action for Canstatin, Annexin V-FITC was used to label externalized phosphatidylserine (PS), to assess apoptotic cells. 0.5×10^6 C-PAE cells, PC-3, 786-O and HEK 293 cells were added to each well of a 6 well tissue culture plate in 10% FBS supplemented DMEM (BioWhittaker, Walkersville, Md., USA) overnight. The next day, fresh medium was added to all wells together with 40 ng/ml TNF-α (positive control) or 15 μg/ml Canstatin. Control cells received an equal volume of PBS. After 24 hours of treatment, medium containing detached cells was collected and attached cells were trypsinized and combined with detached cells and centrifuged at 3,000×g. Cells were then washed and phosphatidyl-serine externalization (an early apoptotic indicator) was measured by labeling with FITC-labeled annexin V (Clontech, Palo Alto, Calif., USA) according to the manufacturer's instructions. Annexin V-FITC-labeled cells were counted using a FAC Star Plus flow cytometer (Becton-Dickenson, Waltham, Mass., USA). For each treatment 15,000 cells were counted and stored in listmode.

For the next assay, the system named is HEK 293 cells. Briefly: Annexin V-FITC apoptosis assay. The class given is cell-based, human. Conditions: 15 μg/ml. The protocol: as §1
The test system of assay [1] is CD31-positive tumor vasculature. The assay is described as follows: CD31 immunohistochemistry of xenograft tumors. The note with it: mouse, in vivo. The method, then: Mice from the tumor studies were sacrificed after 10-20 days of treatment. Tumours were excised and fixed in 4% paraformaldehyde. Tissues were paraffin embedded and 3 μm sections were cut and mounted on glass slides. Sections were deparaffinized, rehydrated and treated with […] protease XXIV (SIGMA Chemical Co., St. Louis, Mo., USA) at 37° C. for 5 minutes. Digestion was stopped with 100% ethanol and sections were air dried and blocked with 10% rabbit serum. […]
CD31 immunostaining was used to determine the intra-tumoral microvessel density (MVD) in frozen histological sections of the PC-3 tumor xenografts, using a rat anti-mouse […] monoclonal antibody (PharMingen, San Diego, Calif., USA) with a standard streptavidin-biotin-peroxidase detection system (Vectastain ABC Elite Kit, Vector Labs, Burlingame, Calif., USA). […] MVD was assessed by scanning the tumor at low power magnification, then identifying three areas at the tumor periphery which contained the maximum number of discrete microvessels, and then counting individual microvessels on a 40× field. The mean microvessel density was compared among treatment groups and analyzed using the Student's t-test.

The next assay deals with HUVEC cells. The assay is described as follows: Cell surface labeling with biotinylated Tumstatin-44-131. The note with it: streptavidin-FITC. The class given is binding, human. The method, then: Recombinant E. Coli-expressed Tumstatin-44-131 was biotinylated using Sulfo-NHS-LC-Biotin (Pierce Chem. Co). Tumstatin-44-131, in a buffer containing 10% DMSO and 5% D-mannitol, was incubated with 12 M excess of Sulfo-NHS-LC-Biotin overnight at 4° C. The biotinylated Tumstatin-44-131 precipitated out of solution during this incubation. The precipitate was washed twice with distilled water, resuspended in DMSO, and then mixed 1:1 with distilled water to obtain a final concentration of approximately 4 mg/ml. The biotinylated Tumstatin-44-131 was stored at 4° C.
For cell surface labeling, subconfluent HUVEC cells were removed from the flask using EDTA with light trypsinization, and then washed twice with DMEM containing 2% BSA. Cells were then resuspended in DMEM/BSA and incubated for 1 hour at 4° C. with either biotin-labeled Tumstatin-44-131 or the product of a mock biotin reaction run without Tumstatin-44-131. Cells were then washed twice with DMEM/BSA and then incubated with streptavidin-FITC (“Neutravidin-FITC”, Pierce Chem. Co) for thirty minutes at 4° C. Samples were then viewed on a Nikon Eclipse E600 fluorescent microscope and analyzed by flow cytometry.

B1: endostatin: tumor associated angiogenesis inhibitor used as comparator (protein, UniProt P39060 1572-1754, looked up)
Endostatin: HSHRDFQPVLHLVALNSPLSGGMRGIRGADFQCFQQARAVGLAGTFRAFLSSRLQDLYSIVRRADRAAVPIVNLKDELLFPSWEALFSGSEGPLKPGARIFSFDGKDVLRHPTWPQKSVWHGSDPNGRRLTESYCETWRTEAPSATGQASSLLGGRLLGQSAASCHHAYIVLCIENSFMTASK
modifications: Endostatin
Take B1: the “inhibition of protein synthesis” value in the assay with HUVECs is “did not inhibit protein synthesis”.

B2: Tumstatin: NC1 domain of the α3 chain of type IV collagen, residues 1-244 (SEQ ID NO:10) (protein, listed as Homo sapiens)
chain: GLKGKRGDSGSPATWTTRGFVFTRHSQTTAIPSCPEGTVPLYSGFSFLFVQGNQRAHGQDLGTLGSCLQRFTTMPFLFCNVNDVCNFASRNDYSYWLSTPALMPMNMAPITGRALEPYISRCTVCEGPAIAIAVHSQTTDIPPCPHGWISLWKGFSFIMFTSAGSEGTGQALASPGSCLEEFRASPFLECHGRGTCNYYSNSYSFWLASLNPERMFRKPIPSTVKAGELEKIISRCQVCMKKRH
With B2, the “fold increase in Caspase-3 activity” value in the assay on Caspase-3 in C-PAE cells stood at 1.6 fold.

B3: Canstatin: NC1 domain of the α2 chain of Type IV collagen (SEQ ID NO:6) (protein, listed as Homo sapiens)
chain: VSIGYLLVKHSQTDQEPMCPVGMNKLWSGYSLLYFEGQEKAHNQDLGLAGSCLARFSTMPFLYCNPGDVCYYASRNDKSYWLSTTAPLPMMPVAEDEIKPYISRCSVCEAPAIAIAVHSQDVSIPHCPAGWRSLWIGYSFLMHTAAGDEGGGQSLVSPGSCLEDFRATPFIECNGGRGTCHYYANKYSFWLTTIPEQSFQGSPSADTLKAGLIRTHISRCQVCMKNL
As to B3, the “apoptosis of 786-O cells” value with 786-O cells was “no significant effect”. The “apoptosis of HEK 293 cells” value in the assay with HEK 293 cells was “no significant effect”. The “CD31 staining of tumor vasculature, treated vs control” value in assay [1] was “decrease in CD31-positive vasculature”.

B4: Tumstatin-44-131: residues 44 to 131 of full-length Tumstatin (SEQ ID NO:33) (protein)
chain: FSFLFVQGNQRAHGQDLGTLGSCLQRFTTMPFLFCNVNDVCNFASRNDYSYWLSTPALMPMNMAPITGRALEPYISRCTVCEGPAIAI
modifications: Tumstatin-45-132 (amino acids 45-132 of SEQ ID NO10)
As for B4, the “binding to the endothelial cell surface” value with HUVEC cells is on record as “binds the surface of endothelial cells”.
